# From US20210290732A1, “GLP-1R and GCGR Agonists, Formulations, and Methods of Use” (Spitfire Pharma LLC, priority 2020, published 2021)
# Values joined by “and” are separate entries in the source; they are usually repeats but may differ in a detail not shown here. Identical values can stand only once. “Also recorded” adds a separate entry of the source.
# B1: EU-A1873 (SEQ ID NO: 1) (peptide)
# peptide: HXQGTFTSDYSKYLDEKAAKEFIQWLLQT
# modifications: Aib at 2; side chain lactam between Glu16 and Lys20; Lys17 acylated with Z17CO2H / GC18c (1-(17-carboxyheptadecyloxy) beta-D-glucuronyl); C-terminal amide (NH2)
# notes: Synthetic 29-residue peptide amide; also called ALT-801; analogue 17
# Assays:
# [1] = in vitro stability in pooled human plasma; conditions: 1 to 10 μM; GLP-1 7-36 amide at 4 h, analogs at 8 h
# Description: The stability test was carried out at Climax Laboratories, Inc. (San Jose, Calif.).
# [2] = target: plasma proteins of dog; test: ultracentrifugation of spiked plasma (15000 ng/mL), 37 C, 6 h, LC-MS of supernatant; supernatant value BLQ, extrapolated
# [3] = target: plasma proteins of human; test: as above
# [4] = target: bovine serum albumin (BSA) (bovine, UniProt P02769 25-607); test: method not stated (data not shown)
# bovine serum albumin (BSA), sequence (P02769 25-607 limits assumed): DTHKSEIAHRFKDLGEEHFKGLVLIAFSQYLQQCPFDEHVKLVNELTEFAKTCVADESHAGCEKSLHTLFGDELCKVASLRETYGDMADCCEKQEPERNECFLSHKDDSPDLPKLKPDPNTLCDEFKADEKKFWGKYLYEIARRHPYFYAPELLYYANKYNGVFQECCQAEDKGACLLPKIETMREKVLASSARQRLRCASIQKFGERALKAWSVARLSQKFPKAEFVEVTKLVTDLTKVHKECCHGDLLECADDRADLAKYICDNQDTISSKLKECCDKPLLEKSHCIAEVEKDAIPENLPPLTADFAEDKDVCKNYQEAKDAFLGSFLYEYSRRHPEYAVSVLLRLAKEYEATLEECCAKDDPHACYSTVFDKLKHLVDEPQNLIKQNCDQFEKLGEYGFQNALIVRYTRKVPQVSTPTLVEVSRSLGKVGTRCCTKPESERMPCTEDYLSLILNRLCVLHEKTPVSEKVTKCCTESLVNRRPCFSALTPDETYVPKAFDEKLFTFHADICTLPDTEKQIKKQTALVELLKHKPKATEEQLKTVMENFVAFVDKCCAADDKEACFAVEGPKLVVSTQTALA
# [5] = target: plasma proteins of dog; test: ultracentrifugation of spiked plasma (15000 ng/mL), 37 C, 6 h, LC-MS of supernatant
# [6] = target: plasma proteins of rat; test: as above
# [7] = target: plasma proteins of human; test: as above
# [8] = target: plasma proteins of monkey; test: as above
molecule,measurement,setting,value
CC[C@H](C)[C@H](NC(=O)[C@H](Cc1ccccc1)NC(=O)[C@H](CCC(=O)O)NC(=O)[C@H](CCCCN)NC(=O)[C@H](C)NC(=O)[C@H](C)NC(=O)[C@H](CCC(N)=O)NC(=O)CNC(=O)[C@H](CCC(=O)O)NC(=O)[C@H](CC(C)C)NC(=O)[C@H](Cc1ccc(O)cc1)NC(=O)[C@H](CO)NC(=O)[C@H](CO)NC(=O)[C@@H](NC(=O)[C@H](CC(=O)O)NC(=O)[C@H](CO)NC(=O)[C@@H](NC(=O)[C@H](Cc1ccccc1)NC(=O)[C@@H](NC(=O)CNC(=O)[C@H](CCC(=O)O)NC(=O)[C@H](C)NC(=O)[C@@H](N)Cc1c[nH]cn1)[C@@H](C)O)[C@@H](C)O)C(C)C)C(=O)N[C@@H](C)C(=O)N[C@@H](Cc1c[nH]c2ccccc12)C(=O)N[C@@H](CC(C)C)C(=O)N[C@H](C(=O)N[C@@H](CCCCN)C(=O)NCC(=O)N[C@@H](CCCNC(=N)N)C(N)=O)C(C)C [GLP-1 7-36 amide],stability in pooled human plasma (compound level remaining),[1],rapidly destroyed to below quantitation limit; also recorded: rapid destruction
B1,Percentage of ALT-801 Bound,[2],99.9%
same,Percentage of ALT-801 Unbound,[2],0.126%
same,Percentage of ALT-801 Bound,[3],99.9%
same,Percentage of ALT-801 Unbound,[3],0.117%
same,percent bound to BSA,[4],> 99%
same,Percentage of ALT-801 Bound,[5],99.7% and 99.8%
same,"Percentage of ALT-801 Bound, Mean",[5],99.8%
same,Percentage of ALT-801 Unbound,[5],0.265% and 0.223%
same,"Percentage of ALT-801 Unbound, Mean",[5],0.205%
same,Percentage of ALT-801 Bound,[6],99.7% and 99.8%
same,"Percentage of ALT-801 Bound, Mean",[6],99.8%
same,Percentage of ALT-801 Unbound,[6],0.334% and 0.204% and 0.184%
same,"Percentage of ALT-801 Unbound, Mean",[6],0.241%
same,Percentage of ALT-801 Bound,[7],99.7%
same,"Percentage of ALT-801 Bound, Mean",[7],99.8%
same,Percentage of ALT-801 Unbound,[7],0.309%
same,"Percentage of ALT-801 Unbound, Mean",[7],0.213%
same,Percentage of ALT-801 Bound,[8],100%
same,"Percentage of ALT-801 Bound, Mean",[8],100%
same,"Percentage of ALT-801 Unbound, Mean",[8],0.0487%
